Paper PMC4434323

How the values were obtained:
[1] = molecular target: T1, tbx-39 (Y73F8A.16) (Caenorhabditis elegans) (UniProt Q9NA56)
T1 sequence: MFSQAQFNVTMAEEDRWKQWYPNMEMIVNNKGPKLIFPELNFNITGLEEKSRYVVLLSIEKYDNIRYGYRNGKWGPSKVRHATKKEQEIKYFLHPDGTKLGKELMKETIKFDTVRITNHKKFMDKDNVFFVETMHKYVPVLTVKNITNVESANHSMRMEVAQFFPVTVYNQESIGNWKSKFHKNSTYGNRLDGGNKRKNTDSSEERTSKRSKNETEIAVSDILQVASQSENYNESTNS

[2] = molecular target: T2, ham-2 (C07A12.1) (Caenorhabditis elegans) (UniProt H2KYH4)
T2 sequence: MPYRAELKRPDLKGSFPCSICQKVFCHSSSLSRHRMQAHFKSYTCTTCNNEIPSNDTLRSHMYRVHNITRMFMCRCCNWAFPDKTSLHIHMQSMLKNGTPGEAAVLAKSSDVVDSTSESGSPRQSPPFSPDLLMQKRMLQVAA

[3] = molecular target: T3, ztf-29 (Y66D12A.12) (Caenorhabditis elegans) (UniProt Q95Q03)
T3 sequence: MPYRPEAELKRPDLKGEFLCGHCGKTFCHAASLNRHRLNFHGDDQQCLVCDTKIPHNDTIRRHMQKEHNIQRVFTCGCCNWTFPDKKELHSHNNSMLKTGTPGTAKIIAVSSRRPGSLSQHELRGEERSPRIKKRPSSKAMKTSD

[4] = molecular target: T4, B0310.2 (B0310.2) (Caenorhabditis elegans) (UniProt Q10938)
T4 sequence: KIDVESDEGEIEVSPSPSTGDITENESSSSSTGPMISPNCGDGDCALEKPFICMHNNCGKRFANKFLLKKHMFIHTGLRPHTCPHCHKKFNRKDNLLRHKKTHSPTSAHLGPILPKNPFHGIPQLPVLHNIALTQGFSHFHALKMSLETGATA

[5] = molecular target: atf-7 (C07G2.2) (Caenorhabditis elegans) (UniProt Q86MD3)
[6] = molecular target: T5, zip-3 (W07G1.3) (Caenorhabditis elegans) (UniProt Q9XUK2)
T5 sequence: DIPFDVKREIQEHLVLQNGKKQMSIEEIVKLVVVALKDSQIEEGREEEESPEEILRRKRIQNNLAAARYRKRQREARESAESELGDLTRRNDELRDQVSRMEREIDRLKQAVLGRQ

[7] = molecular target: T6, die-1 (C18D1.1) (Caenorhabditis elegans) (UniProt A0A131MCR4)
T6 sequence: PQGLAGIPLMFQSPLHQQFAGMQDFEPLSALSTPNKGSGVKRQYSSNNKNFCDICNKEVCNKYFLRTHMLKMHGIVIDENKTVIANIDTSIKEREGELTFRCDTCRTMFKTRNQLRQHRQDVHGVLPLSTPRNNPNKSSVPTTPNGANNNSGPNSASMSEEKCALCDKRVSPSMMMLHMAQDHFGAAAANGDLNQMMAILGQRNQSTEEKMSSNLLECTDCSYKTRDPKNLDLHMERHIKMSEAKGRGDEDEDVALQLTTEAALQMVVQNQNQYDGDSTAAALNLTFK

[8] = molecular target: T7, atf-5 (T04C10.4) (Caenorhabditis elegans) (UniProt Q22156)
T7 sequence: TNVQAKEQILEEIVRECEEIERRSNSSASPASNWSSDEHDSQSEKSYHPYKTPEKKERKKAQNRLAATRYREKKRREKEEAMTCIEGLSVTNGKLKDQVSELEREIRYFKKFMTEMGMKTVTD

[9] = molecular target: T8, skn-1 (T19E7.2) (Caenorhabditis elegans) (UniProt P34707)
T8 sequence: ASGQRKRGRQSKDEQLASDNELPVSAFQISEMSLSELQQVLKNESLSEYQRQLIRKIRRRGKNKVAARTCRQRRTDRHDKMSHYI

[10] = molecular target: T9, tbx-43 (Y46E12A.4) (Caenorhabditis elegans) (UniProt Q1T6W8)
T9 sequence: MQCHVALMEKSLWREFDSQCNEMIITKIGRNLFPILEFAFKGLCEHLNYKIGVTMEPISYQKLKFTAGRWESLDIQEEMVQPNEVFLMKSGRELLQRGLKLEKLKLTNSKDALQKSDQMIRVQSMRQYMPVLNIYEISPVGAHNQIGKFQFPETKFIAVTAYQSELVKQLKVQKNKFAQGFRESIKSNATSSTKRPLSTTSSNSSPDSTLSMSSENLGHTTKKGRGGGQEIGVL

[11] = molecular target: T10, tbx-38 (C24H11.3) (Caenorhabditis elegans) (UniProt Q9XVD5)
T10 sequence: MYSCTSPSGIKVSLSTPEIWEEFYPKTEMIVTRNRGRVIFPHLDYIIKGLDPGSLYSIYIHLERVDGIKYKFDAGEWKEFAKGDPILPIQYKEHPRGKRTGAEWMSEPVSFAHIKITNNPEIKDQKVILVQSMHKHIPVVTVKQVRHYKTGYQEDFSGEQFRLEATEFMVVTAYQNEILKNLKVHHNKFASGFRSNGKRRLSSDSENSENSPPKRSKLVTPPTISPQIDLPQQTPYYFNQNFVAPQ

Chain of atf-7 (C07G2.2) (Caenorhabditis elegans) (Q86MD3 339-508): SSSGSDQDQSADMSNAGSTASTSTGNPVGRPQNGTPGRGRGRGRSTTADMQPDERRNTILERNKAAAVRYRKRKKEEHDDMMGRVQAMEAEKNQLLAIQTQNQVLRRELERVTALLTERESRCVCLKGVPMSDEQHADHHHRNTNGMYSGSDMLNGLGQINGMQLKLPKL

AAACTTGG (double strand) [8-mer AAACTTGG]
binding signal (PBM E-score (-0.5 to 0.5)) [1]: 0.487

AAAGCTTA (double strand) [8-mer AAAGCTTA]
binding signal (PBM E-score (-0.5 to 0.5)) [2]: 0.481 | binding signal (PBM E-score (-0.5 to 0.5)) [3]: 0.485

AACCTCAA (double strand) [8-mer AACCTCAA]
binding signal (PBM E-score (-0.5 to 0.5)) [4]: 0.483

AACGTCAT (double strand) [8-mer AACGTCAT]
binding signal (PBM E-score (-0.5 to 0.5)) [5]: 0.495 | binding signal (PBM E-score (-0.5 to 0.5)) [6]: 0.486

AACTTAGC (double strand) [8-mer AACTTAGC]
binding signal (PBM E-score (-0.5 to 0.5)) [1]: 0.493

AACTTAGT (double strand) [8-mer AACTTAGT]
binding signal (PBM E-score (-0.5 to 0.5)) [1]: 0.479

AACTTCGC (double strand) [8-mer AACTTCGC]
binding signal (PBM E-score (-0.5 to 0.5)) [1]: 0.467

AACTTGGA (double strand) [8-mer AACTTGGA]
binding signal (PBM E-score (-0.5 to 0.5)) [1]: 0.473

AACTTGGC (double strand) [8-mer AACTTGGC]
binding signal (PBM E-score (-0.5 to 0.5)) [1]: 0.497

AACTTGGT (double strand) [8-mer AACTTGGT]
binding signal (PBM E-score (-0.5 to 0.5)) [1]: 0.496

AAGCTAGC (double strand) [8-mer AAGCTAGC]
binding signal (PBM E-score (-0.5 to 0.5)) [2]: 0.476

AAGCTTAC (double strand) [8-mer AAGCTTAC]
binding signal (PBM E-score (-0.5 to 0.5)) [2]: 0.489 | binding signal (PBM E-score (-0.5 to 0.5)) [3]: 0.485

AAGCTTAT (double strand) [8-mer AAGCTTAT]
binding signal (PBM E-score (-0.5 to 0.5)) [2]: 0.487 | binding signal (PBM E-score (-0.5 to 0.5)) [3]: 0.488

AATTTAAA (double strand) [8-mer AATTTAAA]
binding signal (PBM E-score (-0.5 to 0.5)) [7]: 0.497

ACCTCAAA (double strand) [8-mer ACCTCAAA]
binding signal (PBM E-score (-0.5 to 0.5)) [4]: 0.481

ACCTCAAT (double strand) [8-mer ACCTCAAT]
binding signal (PBM E-score (-0.5 to 0.5)) [4]: 0.49

ACCTCACT (double strand) [8-mer ACCTCACT]
binding signal (PBM E-score (-0.5 to 0.5)) [4]: 0.478

ACGTCATA (double strand) [8-mer ACGTCATA]
binding signal (PBM E-score (-0.5 to 0.5)) [5]: 0.497 | binding signal (PBM E-score (-0.5 to 0.5)) [8]: 0.464 | binding signal (PBM E-score (-0.5 to 0.5)) [6]: 0.493

ACGTCATG (double strand) [8-mer ACGTCATG]
binding signal (PBM E-score (-0.5 to 0.5)) [5]: 0.496 | binding signal (PBM E-score (-0.5 to 0.5)) [6]: 0.486

ACTTGGCA (double strand) [8-mer ACTTGGCA]
binding signal (PBM E-score (-0.5 to 0.5)) [1]: 0.492

ACTTGGTA (double strand) [8-mer ACTTGGTA]
binding signal (PBM E-score (-0.5 to 0.5)) [1]: 0.472

ACTTTAAA (double strand) [8-mer ACTTTAAA]
binding signal (PBM E-score (-0.5 to 0.5)) [7]: 0.493

AGATGACG (double strand) [8-mer AGATGACG]
binding signal (PBM E-score (-0.5 to 0.5)) [6]: 0.487

AGCTAGCT (double strand) [8-mer AGCTAGCT]
binding signal (PBM E-score (-0.5 to 0.5)) [2]: 0.488

ATACCTCA (double strand) [8-mer ATACCTCA]
binding signal (PBM E-score (-0.5 to 0.5)) [4]: 0.485

ATATGACG (double strand) [8-mer ATATGACG]
binding signal (PBM E-score (-0.5 to 0.5)) [6]: 0.493

ATATGATG (double strand) [8-mer ATATGATG]
binding signal (PBM E-score (-0.5 to 0.5)) [6]: 0.486

ATCCCTCA (double strand) [8-mer ATCCCTCA]
binding signal (PBM E-score (-0.5 to 0.5)) [4]: 0.482

ATGACGCG (double strand) [8-mer ATGACGCG]
binding signal (PBM E-score (-0.5 to 0.5)) [6]: 0.488

ATGACGTA (double strand) [8-mer ATGACGTA]
binding signal (PBM E-score (-0.5 to 0.5)) [5]: 0.498 | binding signal (PBM E-score (-0.5 to 0.5)) [8]: 0.459 | binding signal (PBM E-score (-0.5 to 0.5)) [6]: 0.49

ATGACGTC (double strand) [8-mer ATGACGTC]
binding signal (PBM E-score (-0.5 to 0.5)) [5]: 0.497 | binding signal (PBM E-score (-0.5 to 0.5)) [8]: 0.468 | binding signal (PBM E-score (-0.5 to 0.5)) [6]: 0.493

ATGAGGGA (double strand) [8-mer ATGAGGGA]
binding signal (PBM E-score (-0.5 to 0.5)) [4]: 0.478

ATGAGGTA (double strand) [8-mer ATGAGGTA]
binding signal (PBM E-score (-0.5 to 0.5)) [4]: 0.484

ATGCTAAT (double strand) [8-mer ATGCTAAT]
binding signal (PBM E-score (-0.5 to 0.5)) [2]: 0.478

ATGCTTAA (double strand) [8-mer ATGCTTAA]
binding signal (PBM E-score (-0.5 to 0.5)) [2]: 0.48

ATTTAAAA (double strand) [8-mer ATTTAAAA]
binding signal (PBM E-score (-0.5 to 0.5)) [7]: 0.481

ATTTAAAC (double strand) [8-mer ATTTAAAC]
binding signal (PBM E-score (-0.5 to 0.5)) [7]: 0.484

ATTTTAAA (double strand) [8-mer ATTTTAAA]
binding signal (PBM E-score (-0.5 to 0.5)) [7]: 0.496

CCAAGTTA (double strand) [8-mer CCAAGTTA]
binding signal (PBM E-score (-0.5 to 0.5)) [1]: 0.495

CCAAGTTC (double strand) [8-mer CCAAGTTC]
binding signal (PBM E-score (-0.5 to 0.5)) [1]: 0.477

CCTCAATC (double strand) [8-mer CCTCAATC]
binding signal (PBM E-score (-0.5 to 0.5)) [4]: 0.477

CGTCATCA (double strand) [8-mer CGTCATCA]
binding signal (PBM E-score (-0.5 to 0.5)) [9]: 0.492 | binding signal (PBM E-score (-0.5 to 0.5)) [6]: 0.489

CTAAGTTA (double strand) [8-mer CTAAGTTA]
binding signal (PBM E-score (-0.5 to 0.5)) [1]: 0.48

CTACCAAG (double strand) [8-mer CTACCAAG]
binding signal (PBM E-score (-0.5 to 0.5)) [1]: 0.473

CTACCTCA (double strand) [8-mer CTACCTCA]
binding signal (PBM E-score (-0.5 to 0.5)) [4]: 0.484

CTTGGCAC (double strand) [8-mer CTTGGCAC]
binding signal (PBM E-score (-0.5 to 0.5)) [1]: 0.477

CTTTTAAA (double strand) [8-mer CTTTTAAA]
binding signal (PBM E-score (-0.5 to 0.5)) [7]: 0.47

GAACCTCA (double strand) [8-mer GAACCTCA]
binding signal (PBM E-score (-0.5 to 0.5)) [4]: 0.48

GATGACGC (double strand) [8-mer GATGACGC]
binding signal (PBM E-score (-0.5 to 0.5)) [6]: 0.493

GATTTAAA (double strand) [8-mer GATTTAAA]
binding signal (PBM E-score (-0.5 to 0.5)) [7]: 0.477

GGTTTAAA (double strand) [8-mer GGTTTAAA]
binding signal (PBM E-score (-0.5 to 0.5)) [7]: 0.484

GTGAGGGA (double strand) [8-mer GTGAGGGA]
binding signal (PBM E-score (-0.5 to 0.5)) [4]: 0.478

GTGAGGTA (double strand) [8-mer GTGAGGTA]
binding signal (PBM E-score (-0.5 to 0.5)) [4]: 0.485

GTGTGAAC (double strand) [8-mer GTGTGAAC]
binding signal (PBM E-score (-0.5 to 0.5)) [10]: 0.485 | binding signal (PBM E-score (-0.5 to 0.5)) [11]: 0.492

GTTTAAAA (double strand) [8-mer GTTTAAAA]
binding signal (PBM E-score (-0.5 to 0.5)) [7]: 0.471

TAAGCTTA (double strand) [8-mer TAAGCTTA]
binding signal (PBM E-score (-0.5 to 0.5)) [2]: 0.497 | binding signal (PBM E-score (-0.5 to 0.5)) [3]: 0.496

TACCTCAA (double strand) [8-mer TACCTCAA]
binding signal (PBM E-score (-0.5 to 0.5)) [4]: 0.495

TGACATCA (double strand) [8-mer TGACATCA]
binding signal (PBM E-score (-0.5 to 0.5)) [8]: 0.468 | binding signal (PBM E-score (-0.5 to 0.5)) [6]: 0.49

TGAGGTAA (double strand) [8-mer TGAGGTAA]
binding signal (PBM E-score (-0.5 to 0.5)) [4]: 0.49

TGCTAGCA (double strand) [8-mer TGCTAGCA]
binding signal (PBM E-score (-0.5 to 0.5)) [2]: 0.48

TGTACCAA (double strand) [8-mer TGTACCAA]
binding signal (PBM E-score (-0.5 to 0.5)) [1]: 0.485

TTAGCTAA (double strand) [8-mer TTAGCTAA]
binding signal (PBM E-score (-0.5 to 0.5)) [2]: 0.483
